Here are results for two molecules from article PMC11319775.

Data set [1] has as its target T1, TaHRP1:GST (UniProt A0A3B6H0D8 1-141).
T1 sequence: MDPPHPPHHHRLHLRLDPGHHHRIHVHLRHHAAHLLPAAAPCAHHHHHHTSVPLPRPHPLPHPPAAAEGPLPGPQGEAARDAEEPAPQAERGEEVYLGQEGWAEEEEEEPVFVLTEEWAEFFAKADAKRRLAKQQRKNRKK
The data set is described as follows: EMSA.

Data set [2] deals with T1, TaHRP1:GST. The data set is described as follows: EMSA. This is another data set of the same source.

Like-named read-outs stand apart in the source and are kept apart here.

B1: mProbe-DNA (HBS mutated) (dsDNA)
DNA 1: AAAACCAAAATAACTAGTTAGGCGGCGGTGAAAGAGTTAAATTCCATTTATTTTT
DNA 2: AAAAATAAATGGAATTTAACTCTTTCACCGCCGCCTAACTAGTTATTTTGGTTTT
B1: the binding result in data set [1] was “no binding”.

B2: Probe-DNA (HBS promoter probe) (dsDNA)
DNA 1: AAAACCAAAATAACTAGTTAAAGAAGAATGAAAGAGTTAAATTCCATTTATTTTT
DNA 2: AAAAATAAATGGAATTTAACTCTTTCATTCTTCTTTAACTAGTTATTTTGGTTTT
As for B2, the binding result in data set [2] is listed as “binds”.
